Results published in patent US20050036993A1, “Immune activation by double-stranded polynucleotides” (priority 1998, published 2005).

Test system: NF-PB
Assay: Gel shift analysis with NF-PB consensus ODN, nuclear protein of FRTL-5 cells
Assay type: cell-based, rat
Details: nuclear extracts; dsDNA within 3 hours
Procedure: Nuclear Extracts—A previously employed method to prepare nuclear extracts (S. Ikuyama et al., Mol. Endocrinol. 6:1701-1715 (1992)) was modified to prepare extracts from small numbers of cells. Cells were washed, scraped in 1 ml PBS, pelleted in a microfuge, and resuspended in five volumes of Buffer A (10 mM HEPES-KOH, pH 7.9, 10 mM KCl, 1.5 mM MgCl2, 0.1 mM EDTA) containing 0.3 M sucrose and 2% Tween 40. To release nuclei, they were frozen and thawed once, then repetitively pipetted, 50 to 100 times, using a micropipet with a yellow tip (200 T1 capacity). Samples were overlayed on 1 ml of 1.5 M sucrose in Buffer A and microfuged for 10 min at 4EC. Pelleted nuclei were washed with 1 ml Buffer A, centrifuged for 30 sec, then resuspended in 50 T1 of Buffer B (20 mM HEPES-KOH, pH 7.9, 420 mM NaCl, 1.5 mM MgCl2, 0.2 mM EDTA, 25% glycerol). Samples were placed on ice for 20 min with occasional vortexing and centrifuged for 20 min at 4EC. The supernatant fraction containing nuclear protein was aliquoted and stored at −70 C. […]
Electrophoretic Mobility Shift Analysis (EMSA)—Oligonucleotides were labeled with [K-^32P]ATP using T4 polynucleotide kinase, then purified on 8% native polyacrylamide gels (S. Ikuyama et al., Mol. Endocrinol. 6:1701-1715 (1992); H. Shimura, et al., Mol. Endocrinol. 8:1049-69 (1994)). […] Mixtures were analyzed on 5% native polyacrylamide gels and autoradiographed. […]

B1: KIFN: K-interferon (gamma interferon, character lost), rat recombinant, 100 U/ml (protein, UniProt P01581 23-156, looked up)
Interferon gamma: QGTLIESLESLKNYFNSSSMDAMEGKSLLLDIWRNWQKDGNTKILESQIISFYLRLFEVLKDNQAISNNISVIESHLITNFFSNSKAKKDAFMSIAKFEVNNPQIQHKAVNELIRVIHQLSPESSLRKRKRSRC
**Q.** With B1 as the molecule, how does the “binding of p50/p65 and p50 homodimer to consensus NF-PB oligonucleotide binding site” value read?
**A.** significantly lesser level
